B1: LINE1-full (parent)
chain: UACGUAGGUGGUUUUCCCCUGAUAGUGCUAAGGGGGCCUGGAAGUUUGGACUGGGCAGAGCUCAACACAGCGUGGCAAAGUGGCUGUGGCUAGACUGCCUCUCUGGAUUCCUCGUCACUCAGCAGGGCAUCUCUGAGAGAAAUGCC

Variants of: B1
Assay: self-cleavage, relative activity (ratio to wild type); higher = more cleavage; in vitro, sequencing; the parent is a self-cleaving ribozyme

Variant | self-cleavage
UACGUAGGUGGUUUUCCCCUGAUAGUGCUAAGGGGGCUUGGAAGUUUGGACUGGGCAGAACUCAACACAGCGUGGCAAAGUGGCUGUGGCUAGACUGCCUCUCUGGAUUCCUCGUCACUCAGCAGGGCAUCUCUGAGAGAAAUGCC [C38U G60A] | 0.05
UACGUAGGUGGUUUUCCCCUGAGAGUGCUAAGGGGGCCUGGAAGUUUGGACUGGGCAGAGCUCAACACAGCGUGGCAAAGUGGCUGUGGGUAGACUGCCUCUCUGGAUUCCUCGUCACUCAGCAGGGCAUCUCUGAGAGAAAUGCC [U23G C90G] | 0.03
UACGUAGGUGGUUUUCCCCUGAUAGUGCUAAGGGGGCCUGGGAGUUUGGACUGGGCAGAGCUCAACACAGCGUGGCAAAGUGGCUGUGGCUAUACUGCCUCUCUGGAUUCCUCGUCACUCAGCAGGGCAUCUCUGAGAGAAAUGCC [A42G G93U] | 0.05
UACGUAGGUGGUUUUCCCCUGAUAGUGCUAAGGGGGCCUGGAAGUUUGGACAGGGCAGAGCUCAACACAGCGUGGCAAAGUGGCUGUGGCUAGACUGCCUCUCUGGAUUCCUCGUCACUCAGCAGGGCAUCUCAGAGAGAAAUGCC [U52A U134A] | 1.04
UACGUAGGUGGUUUUCCCUUGAUAGUGCUAAGGGGGCCUGGAAGUUUGGACUGGGCAGAGCUCAACACAGCGUGGCAAAGUGGCUGUGGCUAGACUGCCUCACUGGAUUCCUCGUCACUCAGCAGGGCAUCUCUGAGAGAAAUGCC [C19U U102A] | 1.19
UACGUAGGUGGUUUUCCCAUGAUAGUGCUAAGGGGGCCUGGAAGUUUGGACUGGGCAGAGCUCAACACAGCGUGGCAAAGUGGCUGUGGCUAGACUGCCUCUCUGGAUUCCUCGUCACUCAGCAGGGCAUCUCUGAGAGAAGUGCC [C19A A142G] | 1.3
UACGUAGGUGGCUUUCCCCUGAUAGUGCUAAGGGGGCCUGGAAGUUUGGACUGGGCAGAGCUCAACACAGCGUGGCAAAGUGGCUGUGGCUAGACUGCCUCUCUGGAUUCCUCGUCACUUAGCAGGGCAUCUCUGAGAGAAAUGCC [U12C C120U] | 1.43
UACGUAGGUGGUUUUCCCCUGAUAGUGCUAAGGGGGCCUGGAAGUUUGGACUGGGCAGAGCUCAACACAGCGUGGCAAAGUGGCUGUGGCUAGACUGCCUCUCUGGAUUCCUCGUCACUCAGCUGGGCAUCACUGAGAGAAAUGCC [A124U U132A] | 1.56
UAUGUAGGUGGUUUUCCCCUGAUAGUGCUAAGGGGGCCUGGAAGUUUGGACUGGGCAGAGCUCAACACAGCGUGGCAAAGUGGCUGUGGCUAGACUGCCUCUCUGGAUUCCUCGUCACUCUGCAGGGCAUCUCUGAGAGAAAUGCC [C3U A121U] | 1.41
UACGUAGGUGGUUUUCCCCUGAUAGUGCUAAGGGGGCUUGGAAGUUUGGACUGGGCAGAGCUCAACACAGCGUGGCAAAGUGGCUGUGGCUAGAUUGCCUCUCUGGAUUCCUCGUCACUCAGCAGGGCAUCUCUGAGAGAAAUGCC [C38U C95U] | 0.21
UACGUAGGAGGUUUUCCCCUGAUAGUGCUAAGGGGGCCUGGAAGUUUGGACUGGGCAGAGCUCAACACAGCGUGGCAAAGUGGCUGUGGCUAGACUGCCUCUCUGGAUUCCUCGUCACUCAGCCGGGCAUCUCUGAGAGAAAUGCC [U9A A124C] | 1.74
UACGUAGGUGGUUUUCCCCUGAUAGUGCUAAGGGGGCCUGGAAGUUUGGACUGGGCAGAGCUCAACACAGCGUGGCAAAGUAGCUGUGGCUAGACUGCAUCUCUGGAUUCCUCGUCACUCAGCAGGGCAUCUCUGAGAGAAAUGCC [G82A C99A] | 0.78
UACGUAGGUGGUUUUCCCCUGAUAGUGCUAAGGGGGCCUGGAAGUUUGGACUGGGCAGAGCUCAACACAGCGUGGCAAAGUGGCUGAGGCUAGACUGCCUCUCUGGAUUCCUCGUCACUCUGCAGGGCAUCUCUGAGAGAAAUGCC [U87A A121U] | 0.09
UACGUAGGUGGUUUUCCCCUGAUAGUGCUAAGGGGGCCUGGAAGUUUGGACUGGGCAGAGCUCAACACAGCGUGGCAAUGUGGCUGUGGCUAGACUGCCUCUCUGGAUUCCCCGUCACUCAGCAGGGCAUCUCUGAGAGAAAUGCC [A79U U112C] | 1.95
UACGUAGGUGGUUCUCCCCUGAUAGUGCUAAGGGGGUCUGGAAGUUUGGACUGGGCAGAGCUCAACACAGCGUGGCAAAGUGGCUGUGGCUAGACUGCCUCUCUGGAUUCCUCGUCACUCAGCAGGGCAUCUCUGAGAGAAAUGCC [U14C C37U] | 0.95
UACGUAGGUGGUUUUCCCCUGAUAGUGCUAAGGGGGCCCGGAAGUUUGGACUGGGCAGAGCUCUACACAGCGUGGCAAAGUGGCUGUGGCUAGACUGCCUCUCUGGAUUCCUCGUCACUCAGCAGGGCAUCUCUGAGAGAAAUGCC [U39C A64U] | 0.35
UAUGUAGGUGGUUUUCCCCUGAUAGUGCUAAGGGGGCCUGGAAGUUUGGACUGGGCAGAGCUCAACACAGCGUGGCAAAGUGGCUGUGGCUAGACUGCCUCUCUGGAUUCCUCGUCACUCAGCAGGGCAUCUCUGAGAGAAAAGCC [C3U U143A] | 0.41
UACGUAGGUGGUUUUCCCCUGAUAGUGCUAAGGGGGCCUGGAAGUUUGGACUGGGCAGAGCUCAACACAGCGUGCCUAAGUGGCUGUGGCUAGACUGCCUCUCUGGAUUCCUCGUCACUCAGCAGGGCAUCUCUGAGAGAAAUGCC [G75C A77U] | 0.75
UACGUAGGUGGUUUUCCCCUGAUUGUGCUAAGGGGGCCUGGAAGUUCGGACUGGGCAGAGCUCAACACAGCGUGGCAAAGUGGCUGUGGCUAGACUGCCUCUCUGGAUUCCUCGUCACUCAGCAGGGCAUCUCUGAGAGAAAUGCC [A24U U47C] | 1.57

From the RNAGym collection of RNA variant scans (doi:10.7554/elife.90254)
